Laboratory results reported in PMC7527728, “CPSF6-Dependent Targeting of Speckle-Associated Domains Distinguishes Primate from Nonprimate Lentiviral Integration” (mBio, 2020).
pKd: −log10 of the molar value.

Target: CPSF6_(276–290/F284A) peptide (human)
Experiment: fluorescence polarisation; 150 nM FITC-Ahx-labelled peptide mixed with increasing capsid NTD protein (2 μM to 2 mM) in 50 mM Tris-HCl pH 8.0, 50 mM NaCl, 384-well plates; one-site specific binding model; the EIAV constants are called apparent

| Substance | pKd |
| --- | --- |
| HIV-1 capsid N-terminal domain (NTD) protein (domain or fragment) | < 2.22 |
| MLV capsid N-terminal domain (NTD) protein (domain or fragment) | < 2.10 |
